In paper PMC3890319, “Role of Receptor Activity Modifying Protein 1 in Function of the Calcium Sensing Receptor in the Human TT Thyroid Carcinoma Cell Line” (PLoS ONE, 2014):

Target: T1, Calcium Sensing Receptor, C-terminal Citrine fusion (UniProt P41180 20-1078)
T1 construct: Calcium Sensing Receptor (CaSR); cDNA cloned without its stop codon between HindIII and Not1 of pcDNA3.1-Citrine; Acceptor of the FRET pair; it says only that the cDNA was cloned excluding the stop codon; also called CaSR; CaSR-citrine; source: COS-7, transfected by electroporation (pcDNA3.1), in fixed cells; not shown: Citrine, C-terminal, kept
T1 sequence (looked up): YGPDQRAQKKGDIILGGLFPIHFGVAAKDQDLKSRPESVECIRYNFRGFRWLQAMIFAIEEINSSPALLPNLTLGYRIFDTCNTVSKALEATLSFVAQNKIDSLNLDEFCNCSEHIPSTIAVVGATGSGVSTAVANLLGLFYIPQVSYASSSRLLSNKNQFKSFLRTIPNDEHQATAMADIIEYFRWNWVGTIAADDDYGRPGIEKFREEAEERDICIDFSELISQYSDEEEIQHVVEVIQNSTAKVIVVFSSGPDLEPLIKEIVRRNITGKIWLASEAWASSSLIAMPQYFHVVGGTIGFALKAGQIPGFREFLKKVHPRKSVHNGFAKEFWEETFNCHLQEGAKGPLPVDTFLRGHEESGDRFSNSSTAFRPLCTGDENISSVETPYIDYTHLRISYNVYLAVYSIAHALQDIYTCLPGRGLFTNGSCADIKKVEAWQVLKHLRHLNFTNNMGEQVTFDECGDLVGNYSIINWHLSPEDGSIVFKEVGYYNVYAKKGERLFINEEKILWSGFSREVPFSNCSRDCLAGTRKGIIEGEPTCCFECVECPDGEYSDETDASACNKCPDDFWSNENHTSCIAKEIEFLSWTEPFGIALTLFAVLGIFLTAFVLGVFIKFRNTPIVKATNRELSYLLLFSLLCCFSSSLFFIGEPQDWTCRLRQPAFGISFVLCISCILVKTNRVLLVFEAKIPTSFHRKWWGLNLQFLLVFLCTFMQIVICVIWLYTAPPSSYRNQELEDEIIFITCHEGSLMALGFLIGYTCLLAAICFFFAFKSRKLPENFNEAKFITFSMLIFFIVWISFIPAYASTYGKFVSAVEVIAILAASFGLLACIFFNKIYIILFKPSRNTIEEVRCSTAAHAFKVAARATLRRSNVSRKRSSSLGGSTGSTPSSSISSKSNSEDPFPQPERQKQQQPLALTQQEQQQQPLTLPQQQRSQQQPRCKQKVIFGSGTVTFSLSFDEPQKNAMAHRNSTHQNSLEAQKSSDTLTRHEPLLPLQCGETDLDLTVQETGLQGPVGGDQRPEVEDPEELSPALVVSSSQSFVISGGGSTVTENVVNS
Assay: FRET or BRET; sensitized-emission FRET (NFRET, PixFRET) and FRET-based stoichiometry in cell-surface regions of interest (50-pixel dots) of fixed COS-7 cells co-transfected with CaSR-Citrine (acceptor) and RAMP-Cerulean (donor); confocal microscopy at room temperature; NFRET as percent of a Cerulean-linker-Citrine positive control; negative control Citrine alone + RAMP-Cerulean
Conditions: partners not purified

B1: Receptor Activity Modifying Protein 1, C-terminal Cerulean fusion (natural protein, UniProt O60894 27-148, looked up)
chain: CQEANYGALLRELCLTQFQVDMEAVGETLWCDWGRTIRSYRELADCTWHMAEKLGCFWPNAEVDRFFLAVHGRYFRSCPISGRAVRDPPGSILYPFIVVPITVTLLVTALVVWQSKRTEGIV
notes: Receptor Activity Modifying Protein 1 (RAMP1); cDNA cloned without its stop codon between Kpn1 and Not1 of pcDNA3.1-Cerulean; Donor of the FRET pair; also called RAMP1; RAMP1-Cer; source: COS-7, transfected by electroporation (pcDNA3.1), in fixed cells; not shown: Cerulean, C-terminal, kept
  stoichiometry N: 2.19 CaSR:RAMP

B2: Receptor Activity Modifying Protein 3, C-terminal Cerulean fusion (natural protein, UniProt O60896 24-148, looked up)
chain: RAGGCNETGMLERLPLCGKAFADMMGKVDVWKWCNLSEFIVYYESFTNCTEMEANVVGCYWPNPLAQGFITGIHRQFFSNCTVDRVHLEDPPDEVLIPLIVIPVVLTVAMAGLVVWRSKRTDTLL
notes: Receptor Activity Modifying Protein 3 (RAMP3); cDNA cloned without its stop codon between Kpn1 and Not1 of pcDNA3.1-Cerulean; Donor of the FRET pair; also called RAMP3; RAMP3-Cer; source: COS-7, transfected by electroporation (pcDNA3.1), in fixed cells; not shown: Cerulean, C-terminal, kept
  stoichiometry N: 1.5 CaSR:RAMP
